In US5849703A, “Pre-formed anticoagulant heparin/TFPI complexes” (G. D. Searle & Co., priority 1996, dated 1998):
“And” between values parts separate entries of the source, which are not always exact repeats. Identical values can stand only once. “Also recorded” adds a separate entry of the source. Like-named read-outs stand apart in the source and are kept apart here.

Assays:
[1] = test system: TF-induced clotting of TFPI-depleted plasma; experiment: dPT assay in TFPI-depleted plasma (1:50 dilution of Simplastin); type: biochemical, human; conditions: for prolongation of clotting time: increasing concentrations, alone, 1:50 dilution of Simplastin
Protocol: FIG. 2B: Effects of CT-TFPI (.quadrature.), heparin (.circle-solid.), and sequential addition of CT-TFPI and heparin (.tangle-solidup.) on clotting time. dPTs were determined as described in METHODS using 1:50 dilution of Simplastin®.
Pooled plasma was prepared by mixing four (4) units of individual plasmas, and TFPI-depleted pooled plasma was obtained by passing the pooled plasma through a rabbit anti-human TFPI-Ig Sepharose® 4B column as described previously [(Wun, J. Biol. Chem. 265:16096-16101 (1990)].
(§1) Rabbit brain thromboplastin (TF;Simplastin®) was diluted to varying degrees ranging from 1:4 to 1:50 with a buffer containing 12.5 mM CaCl2, 75 mM NaCl, 0.5 mg/ml bovine serum albumin, and 0.02% NaN3, for determination of TF-induced clotting time in human plasma. Fifty (50) μl of human plasma were mixed with 50 μl of DB, heparin, TFPI, or preformed complexes of heparin/TFPI in DB in the well of a Fibrometer at 37° for 1 min. Two hundred (200) μl of appropriately diluted thromboplastin reagent were then added and the time to clotting was determined.
(§2) The dPTs reported here are the average of 2 to 8 determinations, depending on the length of the clotting time. When the clotting time was short (<100 sec), the variations between determinations are small and 2-4 assay values were averaged for each data point. When the clotting time is long (>100 sec), the variations between determinations are larger and 5-8 assay values are averaged for each data point. […] The concentrations of heparin and TFPI are expressed as units or μg per ml of plasma, not as that in the final assay mixture.
In the present work, FL-TFPI and CT-TFPI were separated by Mono S chromatography as described before [Wun, et al., Thromb. Haemost. 68, 54-59 (1992)], and the effects of heparin, FL-TFPI, or CT-TFPI alone, and combinations of heparin/FL-TFPI, and heparin/CT-TFPI were compared. FIGS. 2A and B show the results.

[2] = Plasma levels of TFPI following bolus injection and constant infusion; type: in vivo, rabbit; conditions: infusion of 11.4 μg/kg/min FL-TFPI, 4 h; PCFIA
Protocol: For FL-TFPI, a bolus of 0.5 mg/kg was injected through the femoral vein followed by constant infusion of FL-TFPI (11.4 μg/kg/min).
For heparin/FL-TFPI, a bolus of preformed heparin (0.24 mg/kg)/FL-TFPI (0.19 mg/kg) complex was injected followed by constant infusion of heparin (5.4 μg/kg/min)/FL-TFPI (4.3 μg/kg/min) complex. Infusions were carried out over a 4-h period. Plasma levels of TFPI were measured by PCFIA assay.
For constant infusion studies, a bolus of FL-TFPI (0.5 mg/kg) or pre-formed heparin (0.24 mg/kg)/FL-TFPI (0.19 mg/kg) complex was injected through the femoral vein, followed by constant infusion of FL-TFPI (11.4 μg/kg/min)or heparin (5.4 μg/kg/min)/FL-TFPI (4.3 μg/kg/min) complex over a 4-hr period. Blood collection and plasma sample preparation were carried out as described above.
(§3) Plasma levels of TFPI antigen were measured by PCFIA assay. Functional TFPI activity in the plasma was also measured by dPT assay using each rabbit's own control plasma supplemented with known concentrations of FL-TFPI as a reference standard [Palmier, et al., Thromb. Haemost. 68, 33-36 (1992)]. Data from individual animals were fitted to the general bi-exponential equation: […]

[3] = Pharmacokinetics following bolus injection in rabbits; type: in vivo, rabbit; conditions: for tα: bolus FL-TFPI 1.5 mg/kg or heparin 1.9 mg/kg/FL-TFPI 1.5 mg/kg; for % AUCα / % AUCβ / Clearence / Vd / tβ: bolus
Protocol: The pharmacokinetics study was carried out as described in METHODS. Rabbits were injected with a bolus of FL-TFPI (1.5 mg/kg) or heparin (1.9 mg/kg)/FL-TFPI (1.5 mg/kg) complex.
as §3
where C is the concentration of TFPI at time t, and A and B are the intercept values (to) extrapolated from a and b, the first order elimination rate constants.

[4] = pH 7.4
Excerpt: (§6) The solubility of non-glycosylated recombinant E. coli-derived FL-TFPI [Diaz-Collier, et al., Thromb.

[5] = test system: TF-induced clotting in human plasma; experiment: Dilute prothrombin time (dPT) assay: TF-induced clotting of human plasma; type: biochemical; conditions: 1:4 dilution of Simplastin
Protocol: dPT assay was carried out using 1:4 dilution of Simplastin®. Closed square and closed triangle on the abscissa indicate the clotting times of the plasma supplemented with control buffer and 2 μg/ml FL-TFPI, respectively.
dPT assay was carried out using 1:40 dilution of Simplastin®. Closed square and closed triangle on the abscissa indicate the clotting times of the plasma supplemented with control buffer and 0.3 μg/ml FL-TFPI, respectively.
as §1, §2
In one-stage TF-induced plasma clotting assay, clotting time is dependent on the concentration of TF and the concentrations of anticoagulants present. […] In the absence of added anticoagulants, the addition of this concentration of TF caused the plasma to clot in 20 sec (closed square).

[6] = cited from earlier work
[7] = test system: extrinsic and the common pathways; experiment: Prothrombin time (PT) assay; type: biochemical, human
Protocol: (§4) Measurement of PT and APTT are as described in METHODS. PT and APTT ratios are calculated by dividing the clotting times in the presence of the indicated amounts of FL-TFPI or heparin by the clotting times in the absence of anticoagulants.
Ninety (90) μl of plasma were mixed with 10 μl of DB (dilution buffer containing 10 mM Tris/HCl, pH 7.4, 150 mM NaCl, 1 mM Na2 SO4, 1 mg/ml bovine serum albumin, and 0.02% NaN3), FL-TFPI solution, or heparin solution in the Fibrometer well at 37° for 1 min. Two hundred (200) μl of Simplastin® were then added and the time to clotting was recorded.
(§5) PT is a global test that primarily measures the functionality of the extrinsic and the common pathways; while APTT is a procedure which evaluates that of the intrinsic and the common pathways. The individual effects of heparin and FL-TFPI on PT and APTT were examined to determine the primary sites of their actions.

[8] = test system: fibrin-dependent glomerulonephritis model; conditions: clinical dose of heparin; cited from earlier work
[9] = test system: intrinsic and the common pathways; experiment: Activated partial thromboplastin time (APTT) assay; type: biochemical, human
Protocol: as §4
Ninety (90) μl of plasma were mixed with 10 μl of DB, FL-TFPI solution, or heparin solution in the Fibrometer well at 37° for 1 min. One hundred (100) μl of Dade's activated cephaloplastin reagent were added and the mixture was incubated for exactly 2 min. A calcium solution (100 μl of 25 mM CaCl2) was added and the time to clotting was recorded.
as §5

factor Xa = conditions: purified system; cited from earlier work
[10] = Solubility of FL-TFPI and heparin/FL-TFPI complexes
Excerpt: as §6

[11] = bolus injection, rabbits, PCFIA
[12] = individual rabbits #1-#3, PCFIA
[13] = up to 40 μg/ml N-acetyl heparin (FIG. 5)

FL-TFPI: Recombinant full-length (FL-) TFPI, tissue factor pathway inhibitor
potency in prolonging the clotting time compared with CT-TFPI ([1]; FIG. 2): much more potent in prolonging the clotting time than CT-TFPI; also recorded: far more potent than CT-TFPI in prolonging the TF-induced clotting time; also recorded: far more potent than CT-TFPI alone or in combination with heparin
prolongation of clotting time [1]: increasingly prolong the clotting time in a moderate manner
steady state plasma level of TFPI [2]: ~ 2 μg/ml
clearance of TFPI antigen (PCFIA) vs functional TFPI activity (dPT) ([3]; bolus injection, rabbits): closely matched
faster overall clearance relative to heparin/FL-TFPI complex ([3]; bolus injection, rabbits): ~ 2.6 fold
overall clearance ([3]; bolus injection, rabbits): 5.7 mL/min/kg
t1/2α [3, 11]: 1.4 min
t1/2β [3, 11]: 92 min
tα [3, 12]: 1.5 min and 1.7 min and 1.0 min
% AUCα [3, 12]: 9.4% and 7.2% and 7.9%
% AUCβ [3, 12]: 90.6% and 92.8% and 92.1%
Clearence [3, 12]: 5.9 mL/min/kg and 4.3 mL/min/kg and 6.8 mL/min/kg
Vd [3, 12]: 0.118 L/kg and 0.115 L/kg
tβ [3, 12]: 89 min and 96 min and 91 min
tα ([3]; mean of 3 rabbits (±SEM on separate line), PCFIA): 1.4 min
% AUCα ([3]; mean of 3 rabbits, PCFIA): 8.2%
% AUCβ ([3]; mean of 3 rabbits, PCFIA): 92%
Clearence ([3]; mean of 3 rabbits, PCFIA): 5.7 mL/min/kg
Vd ([3]; mean of 3 rabbits, PCFIA): 0.117 L/kg
tβ ([3]; mean of 3 rabbits, PCFIA): 92 min
% AUCβ ([3]; mean of 3 rabbits, PCFIA, listed as TFPI): 91.8%
solubility [4]: exceeds 5 mg/ml
prolongation of the clotting time ([5]; 2 μg/ml FL-TFPI alone): 58 s
clotting time ([5]; 2 μg/ml FL-TFPI alone (FIG. 3)): 78 s
clotting time ([5]; 2 μg/ml FL-TFPI alone (FIG. 5)): 90 s
clotting time ([5]; 2 μg/ml FL-TFPI alone (FIG. 6)): 82 s
NaCl required for dissociation from heparin [6]: 0.6 to 1 M
PT ratio increase compared with APTT ratio ([7]; FIG. 1): much greater increase of the PT ratio than the APTT ratio
primary site of action ([7]; from PT and APTT ratios): primarily affects the extrinsic pathway

N-acetyl heparin
clotting time [5, 13]: ~ 18 sec
clotting time (in words) [5, 13]: did not alter the clotting time

heparin
beneficial effect on the disease process [8]: did not produce a beneficial effect on the disease process
prolongation of clotting time [1]: increasingly prolong the clotting time in a moderate manner
APTT ratio increase compared with PT ratio ([9]; FIG. 1): much greater increase of APTT ratio than PT ratio
primary site of action ([9]; from PT and APTT ratios): mainly inhibits the intrinsic pathway
rate of factor Xa inhibition by TFPI (factor Xa): enhances the rate of factor Xa inhibition by TFPI in a concentration dependent and biphasic manner
prolongation of the clotting time ([5]; 10 μg/ml heparin alone): 26 s
clotting time ([5]; heparin beyond 1.25 μg/ml (FIG. 3)): progressively prolonged
clotting time ([5]; heparin up to 1.25 μg/ml (FIG. 3)): did not alter the clotting time

non-glycosylated recombinant E. coli-derived FL-TFPI: non-glycosylated recombinant E. coli-derived FL-TFPI
solubility ([10]; Dulbecco's phosphate-buffered saline, estimated): approximately 200 μg/ml
solubility ([10]; saline solutions, compared with glycosylated FL-TFPI): even lower
